Experimental data as given in paper PMC10943247 (2024).

What was measured:
[1] = target: CRL2^FEM1B complex with FEM1B^F549S, unneddylated (human, UniProt Q13617 1-745; P62877 1-108; Q15370 1-104; Q15369 17-112; Q9UK73 1-627, F549S)
[2] = target: CRL2^FEM1B complex with FEM1B^Δ546-553 (FEM1B^DEL), unneddylated (human, UniProt Q13617 1-745; P62877 1-108; Q15370 1-104; Q15369 17-112; Q9UK73 1-627, Δ546-553)
[3] = target: CRL2^FEM1B complex with FEM1B^F549T, unneddylated (human, UniProt Q13617 1-745; P62877 1-108; Q15370 1-104; Q15369 17-112; Q9UK73 1-627, F549T)
[4] = target: CRL2^FEM1B complex with FEM1B^F549R, unneddylated (human, UniProt Q13617 1-745; P62877 1-108; Q15370 1-104; Q15369 17-112; Q9UK73 1-627, F549R)
[5] = target: CRL2^FEM1B complex with FEM1B^Y275R/L278R, unneddylated (human, UniProt Q13617 1-745; P62877 1-108; Q15370 1-104; Q15369 17-112; Q9UK73 1-627, Y275R | L278R)

- koff [1]: 0.00178 s⁻¹
- koff [2]: 0.000955 s⁻¹
- koff [3]: 0.00184 s⁻¹
- koff [4]: 0.00141 s⁻¹
- koff [5]: 0.000653 s⁻¹
B1: FNIP1/FLCN complex (complex)
chain 1: MAPTLFQKLFSKRTGLGAPGRDARDPDCGFSWPLPEFDPSQIRLIVYQDCERRGRNVLFDSSVKRRNEDISVSKLGSDAQVKVFGKCCQLKPGGDSSSSLDSSVTSSSDIKDQCLKYQGSRCSSDANMLGEMMFGSVAMSYKGSTLKIHQIRSPPQLMLSKVFTARTGSSICGSLNTLQDSLEFINQDNNTLKADNNTVINGLLGNIGLSQFCSPRRAFSEQGPLRLIRSASFFAVHSNPMDMPGRELNEDRDSGIARSASLSSLLITPFPSPNSSLTRSCASSYQRRWRRSQTTSLENGVFPRWSIEESFNLSDESCGPNPGIVRKKKIAIGVIFSLSKDEDENNKFNEFFFSHFPLFESHMNKLKSAIEQAMKMSRRSADASQRSLAYNRIVDALNEFRTTICNLYTMPRIGEPVWLTMMSGTPEKNHLCYRFMKEFTFLMENASKNQFLPALITAVLTNHLAWVPTVMPNGQPPIKIFLEKHSSQSVDMLAKTHPYNPLWAQLGDLYGAIGSPVRLARTVVVGKRQDMVQRLLYFLTYFIRCSELQETHLLENGEDEAIVMPGTVITTTLEKGEIEESEYVLVTMHRNKSSLLFKESEEIRTPNCNCKYCSHPLLGQNVENISQQEREDIQNSSKELLGISDECQMISPSDCQEENAVDVKQYRDKLRTCFDAKLETVVCTGSVPVDKCALSESGLESTEETWQSEKLLDSDSHTGKAMRSTGMVVEKKPPDKIVPASFSCEAAQTKVTFLIGDSMSPDSDTELRSQAVVDQITRHHTKPLKEERGAIDQHQETKQTTKDQSGESDTQNMVSEEPCELPCWNHSDPESMSLFDEYFNDDSIETRTIDDVPFKTSTDSKDHCCMLEFSKILCTKNNKQNNEFCKCIETVPQDSCKTCFPQQDQRDTLSILVPHGDKESSDKKIAVGTEWDIPRNESSDSALGDSESEDTGHDMTRQVSSYYGGEQEDWAEEDEIPFPGSKLIEVSAVQPNIANFGRSLLGGYCSSYVPDFVLQGIGSDERFRQCLMSDLSHAVQHPVLDEPIAEAVCIIADMDKWTVQVASSQRRVTDNKLGKEVLVSSLVSNLLHSTLQLYKHNLSPNFCVMHLEDRLQELYFKSKMLSEYLRGQMRVHVKELGVVLGIESSDLPLLAAVASTHSPYVAQILL
chain 2: MNAIVALCHFCELHGPRTLFCTEVLHAPLPQGDGNEDSPGQGEQAEEEEGGIQMNSRMRAHSPAEGASVESSSPGPKKSDMCEGCRSLAAGHPGYISHDKETSIKYVSHQHPSHPQLFSIVRQACVRSLSCEVCPGREGPIFFGDEQHGFVFSHTFFIKDSLARGFQRWYSIITIMMDRIYLINSWPFLLGKVRGIIDELQGKALKVFEAEQFGCPQRAQRMNTAFTPFLHQRNGNAARSLTSLTSDDNLWACLHTSFAWLLKACGSRLTEKLLEGAPTEDTLVQMEKLADLEEESESWDNSEAEEEEKAPVLPESTEGRELTQGPAESSSLSGCGSWQPRKLPVFKSLRHMRQVLGAPSFRMLAWHVLMGNQVIWKSRDVDLVQSAFEVLRTMLPVGCVRIIPYSSQYEEAYRCNFLGLSPHVQIPPHVLSSEFAVIVEVHAAARSTLHPVGCEDDQSLSKYEFVVTSGSPVAADRVGPTILNKIEAALTNQNLSVDVVDQCLVCLKEEWMNKVKVLFKFTKVDSRPKEDTQKLLSILGASEEDNVKLLKFWMTGLSKTYKSHLMSTVRSPTASESRN
